This note sets out measurements from publication PMC5046194.

For this experiment, the target named is recombinant Ku70 (human) (UniProt P12956). The experiment is described as follows: not stated; complex of recombinant Ku70 and IN; method of the Kd not told.
Sequence of UniProt P12956 (P12956 whole entry): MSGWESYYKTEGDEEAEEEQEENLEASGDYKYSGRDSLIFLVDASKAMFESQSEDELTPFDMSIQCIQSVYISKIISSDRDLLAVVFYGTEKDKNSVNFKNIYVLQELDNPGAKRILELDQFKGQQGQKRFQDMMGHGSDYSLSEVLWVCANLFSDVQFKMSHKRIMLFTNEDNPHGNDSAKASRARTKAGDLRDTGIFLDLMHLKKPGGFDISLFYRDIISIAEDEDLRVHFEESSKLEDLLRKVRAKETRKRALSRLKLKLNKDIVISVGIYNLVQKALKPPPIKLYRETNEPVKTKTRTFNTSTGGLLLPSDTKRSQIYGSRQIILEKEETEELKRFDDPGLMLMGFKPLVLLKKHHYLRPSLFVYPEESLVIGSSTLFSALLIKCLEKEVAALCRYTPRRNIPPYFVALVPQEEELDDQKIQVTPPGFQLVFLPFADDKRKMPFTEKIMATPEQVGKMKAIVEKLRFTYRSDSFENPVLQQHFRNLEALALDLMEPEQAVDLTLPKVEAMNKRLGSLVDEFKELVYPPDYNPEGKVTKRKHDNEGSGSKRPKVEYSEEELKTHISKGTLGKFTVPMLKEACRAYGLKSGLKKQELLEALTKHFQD

What is called Kd is the equilibrium constant for the complex coming apart. For the substance “recombinant His6-IN, wild type (HIV-1 integrase, abstract P13) (enzyme)”, the Kd was determined as 70 nM.
